The source of these data is patent US20240209100A1 (DIAGONAL THERAPEUTICS, published 2024).

The chains are these.
T1: IL-18 receptor (IL-18Rα/IL-18Rβ) overexpressed on HEK-Blue IL-18 cells (Homo sapiens (Human), UniProt Q13478 19-541; O95256 20-599)
T1 sequence 1: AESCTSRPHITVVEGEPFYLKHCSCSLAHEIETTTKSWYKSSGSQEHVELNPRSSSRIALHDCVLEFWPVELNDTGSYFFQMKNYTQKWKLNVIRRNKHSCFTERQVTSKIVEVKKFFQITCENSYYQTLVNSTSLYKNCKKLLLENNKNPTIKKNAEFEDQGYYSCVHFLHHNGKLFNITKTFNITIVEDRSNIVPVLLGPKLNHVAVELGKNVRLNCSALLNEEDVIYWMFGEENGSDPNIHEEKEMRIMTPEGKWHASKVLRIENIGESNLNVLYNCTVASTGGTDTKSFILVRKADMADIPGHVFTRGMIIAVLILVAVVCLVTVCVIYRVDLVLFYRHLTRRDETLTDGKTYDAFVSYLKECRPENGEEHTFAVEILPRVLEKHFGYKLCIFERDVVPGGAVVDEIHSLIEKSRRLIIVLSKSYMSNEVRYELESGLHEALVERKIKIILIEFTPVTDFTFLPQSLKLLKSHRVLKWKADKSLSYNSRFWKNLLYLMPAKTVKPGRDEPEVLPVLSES
T1 sequence 2: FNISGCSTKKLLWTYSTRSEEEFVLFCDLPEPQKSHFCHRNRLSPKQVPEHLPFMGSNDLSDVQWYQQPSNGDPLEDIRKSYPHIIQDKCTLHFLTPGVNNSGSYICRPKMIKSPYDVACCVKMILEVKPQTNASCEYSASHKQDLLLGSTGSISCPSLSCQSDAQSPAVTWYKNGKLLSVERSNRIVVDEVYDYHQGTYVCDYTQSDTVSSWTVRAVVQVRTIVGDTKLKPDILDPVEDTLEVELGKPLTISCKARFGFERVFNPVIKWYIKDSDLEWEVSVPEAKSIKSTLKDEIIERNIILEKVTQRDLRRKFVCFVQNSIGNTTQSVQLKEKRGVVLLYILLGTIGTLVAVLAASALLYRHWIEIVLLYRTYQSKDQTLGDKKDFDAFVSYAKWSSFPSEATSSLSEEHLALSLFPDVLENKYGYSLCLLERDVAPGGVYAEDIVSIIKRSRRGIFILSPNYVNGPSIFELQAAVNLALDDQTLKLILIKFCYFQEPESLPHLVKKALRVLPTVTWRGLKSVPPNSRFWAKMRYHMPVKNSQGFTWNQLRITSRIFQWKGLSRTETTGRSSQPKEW

B1: DGL052 (bispecific antibody, V domains shown)
V domain 1: QVQLQESGGGLVQPGGSLRLSCAASGFIFSNWYMRWVRQAPGEGLEWVSSINSGGDDTDYADSVKGRFTISRDNAKGTLYLQMHSLKPEDTALYYCERGADRVRGQGTQVTVSS
V domain 2: QVQLVESGGDLVLPGGSLKLSCEASGSISSRNSMAWYRRAPGKQRELVAAISSISSGGRTDYADFVKGRFTIFRDTAKNMVYLQMNNLKPEDTAVYDCDDPIRVASLAYDDWGQGTQVTVSS
B2: DGL060 (bispecific antibody, V domains shown)
V domain 1: EVQLVESGGGLVQPGGSLRLSCAASGSIFSINAMGWYRQAPGKQREVVATSTGGGMTNYADSVKGRFTISRDNAKNTVYLQMNSLKPEDTAVYYCNADKDPFFPGDYWGQGTQVTVSS
V domain 2: QVQLQESGGGLVQPGGSLGLSCAASGIKISVNSMAWYRQAPGERREMVAVISSGGSAVYADSVKGRFTISRDNAKNMVYLQMNSLKPEDTAVYYCHPGSAAYRDYWGQGTQVTVSS
B3: DGL068 (bispecific antibody, V domains shown)
V domain 1: B2 V domain 1
V domain 2: QVQLVESGGGLVQAGGSLRLSCVASGTFFQIHVMGWYRQAPGKQRELVAFIINNGGTRYADSVKGRFTISRDYAKNTVYLQMNSLKPEDTAVYYCNTEGTYRGRYSTDNWGQGTQVTVSS
B4: DGL075 (bispecific antibody, V domains shown)
V domain 1: B2 V domain 1
V domain 2: EVQLVESGGGVAQAGGSLRLSCAASITSFSLNTMGYYRQLPGKQRELVAVESSSGITNYADSVKGRFTISRDGAKNTVFLQMNSLTPEDTAVYYCGGKLFGRDFWGQGTQVTVSS
B5: DGL062 (bispecific antibody, V domains shown)
V domain 1: QVQLQESGGGLVQPGGSLRLSCAASGSIFSTKGLGWYRQAPGEQRELVAGISSAGWIFYTQSVKGRFTMSRDNAKNTVYLQMNSLKPEDTAVYYCNSAQSGVPLRSWGQGTQVTVAS
V domain 2: B2 V domain 2
B6: DGL063 (bispecific antibody, V domains shown)
V domain 1: QLQLVESGGGLVQPGGSLRLSCAASGKIFSINIMDWYRQAPGKERELVARISPGDIITYANDVKGRFTISRNNAKNTVYLQMNSLKPEDTAVYYCRWRQGAGDYWGRGTQVTVSS
V domain 2: B2 V domain 2
B7: DGL082 (bispecific antibody, V domains shown)
V domain 1: B2 V domain 1
V domain 2: QVQLVESGGGLVQAGGSLRLSCAASGRSVSENDVRWYRQAPRKQREWVAAITSSGITGYADSVRIRFTISRDLAKNTVYLQMNSLKPEDTAVYYCYMTDQYWGQGTQVTVSS
B8: DGL061 (bispecific antibody, V domains shown)
V domain 1: QVQLQESGGGLVQPGGSLRLSCAASGNIFRATGMGWYRQAPGKWRELVARISSTGSPNYVDFVKGRFTISRDNAKNTLYLQMNSLKPDDTAVYYCNTVGTTLFAWGQGTQVTVSS
V domain 2: B2 V domain 2
B9: DGL076 (bispecific antibody, V domains shown)
V domain 1: B8 V domain 1
V domain 2: B4 V domain 2
B10: DGL078 (bispecific antibody, V domains shown)
V domain 1: QVQLQESGGGLVQAGGSLRLSCIVSGSIVRIDFMGWYRQAPGKKRDMVATITTGGSTNYADSVKDRFTISRDNAKNTLSLQVNDLKPEDTAVYYCNSVVHTTSRPPVLYWGQGTQVTVSS
V domain 2: B4 V domain 2
B11: DGL077 (bispecific antibody, V domains shown)
V domain 1: B5 V domain 1
V domain 2: B4 V domain 2
B12: DGL079 (bispecific antibody, V domains shown)
V domain 1: EVQLVESGGGLVQAGGSLRLSCAASGRTFSNYDMGWFRQAPEKEREFVAVISGPGGIAFYGDSVKGRFTISRDNTKNTVYLQMNRLKSEDTAVYYCAAAPRGSYYRRTNSYDYWGQGTQVTVSS
V domain 2: B4 V domain 2
B13: DGL317 (bispecific antibody, V domains shown)
V domain 1: B1 V domain 1
V domain 2: QVQLVESGGGLVQAGGSLRLSCAASGMFFSIGEMGWYRQAPGKQREMVARITRDGRINYADSVEGRFTASRNVAKTTLFLQMNSLKPEDTANYQCTVRRWDEEYWGKGTLVTVSD
B14: DGL323 (bispecific antibody, V domains shown)
V domain 1: B1 V domain 1
V domain 2: QLQLVESGGGLVQAGGSLRLSCAASRSITFSHNVMGWYRQAPGKQRELVASIGSGGSTNYVDSVKGRATISRDNAKKTVYLQMNSLKPEDTAVYYCGVVVGVYRGSLGQGTQVTVSS
B15: DGL319 (bispecific antibody, V domains shown)
V domain 1: B2 V domain 1
V domain 2: B14 V domain 2
B16: DGL318 (bispecific antibody, V domains shown)
V domain 1: QVQLVESGGGLVQAGGSLRLSCAASGRTFSSYDMGWFRQAPGKEREFVAALRWSGGSTSYADSVKGRFTISRDNAKNTVYLHMNSLKPEDTAVYYCAATLETDSGTYWADYWGQGTQVTVSS
V domain 2: B14 V domain 2
B17: DGL320 (bispecific antibody, V domains shown)
V domain 1: B5 V domain 1
V domain 2: B14 V domain 2
B18: DGL322 (bispecific antibody, V domains shown)
V domain 1: QVQLVESGGGLVQAGGSLRLSCAASGRTFSSYTMGWFRQAPGKEREFVAAISWSAGRTYYADSVKGRFTISRDNAKNTVYLQMNSLKPEDTAVYFCAAEEAPDWAPIDCSGYGCLSLYDYWGQGTQVTVSS
V domain 2: B14 V domain 2
B19: DGL321 (bispecific antibody, V domains shown)
V domain 1: QVQLQESGGGLVQPGGSARLSCVASGIIFNDYHMGWYRQAPGKQRDLVAGITAGGSTTYADSVKGRFTISRDNAKHTVYLQMNNLSPEDTAVYYCNTFYNAILDWGKGTLVTVSS
V domain 2: B14 V domain 2

One experiment concerns the target T1, IL-18 receptor (IL-18Rα/IL-18Rβ) …. Put plainly: cell-based or functional assay.
As for B1, the “HEK-Blue IL-18: Abs405 (Emax)” value stood at 1.03 Abs and the “HEK-Blue IL-18: EC50” value came out at 0.0041 nM.
Consider B2, for which the “HEK-Blue IL-18: Abs405 (Emax)” value turned out to be 0.6 Abs and the “HEK-Blue IL-18: EC50” value worked out at 0.028 nM.
In the case of B3, the “HEK-Blue IL-18: Abs405 (Emax)” value is 0.36 Abs and the “HEK-Blue IL-18: EC50” value was 0.018 nM.
With B4, the “HEK-Blue IL-18: Abs405 (Emax)” value turned out to be 0.81 Abs and the “HEK-Blue IL-18: EC50” value amounted to 0.028 nM.
As for B5, the “HEK-Blue IL-18: Abs405 (Emax)” value is 0.88 Abs and the “HEK-Blue IL-18: EC50” value came to 0.0034 nM.
As for B6, the “HEK-Blue IL-18: Abs405 (Emax)” value is 0.6 Abs and the “HEK-Blue IL-18: EC50” value came to 0.014 nM.
The matching figures for B7: 0.47 Abs and 0.012 nM.
Regarding B8, the “HEK-Blue IL-18: Abs405 (Emax)” value is 0.47 Abs and the “HEK-Blue IL-18: EC50” value worked out at 0.0063 nM.
B9: the “HEK-Blue IL-18: Abs405 (Emax)” value stood at 0.49 Abs and the “HEK-Blue IL-18: EC50” value came to 0.0066 nM.
Take B10: the “HEK-Blue IL-18: Abs405 (Emax)” value was 0.65 Abs and the “HEK-Blue IL-18: EC50” value was determined as 0.024 nM.
The matching figures for B11: 0.6 Abs and 0.0054 nM.
For B12, the “HEK-Blue IL-18: Abs405 (Emax)” value worked out at 0.32 Abs and the “HEK-Blue IL-18: EC50” value is 0.017 nM.

A further experiment shares this target. Put plainly: cell-based or functional assay. This is another data set of the same source.
With B13, the “HEK-Blue IL-18: Abs 405” value was 0.99 Abs and the “HEK-Blue IL-18: Fold over Background” value was determined as 4.3 fold.
The matching figures for B14: 0.42 Abs and 1.8 fold.
Take B15: the “HEK-Blue IL-18: Abs 405” value is 2.88 Abs and the “HEK-Blue IL-18: Fold over Background” value stood at 12.5 fold.
Take B16: the “HEK-Blue IL-18: Abs 405” value amounted to 2.23 Abs and the “HEK-Blue IL-18: Fold over Background” value was 9.7 fold.
As to B17, the “HEK-Blue IL-18: Abs 405” value is 2.36 Abs and the “HEK-Blue IL-18: Fold over Background” value is 10.3 fold.
In the case of B18, the “HEK-Blue IL-18: Abs 405” value is 0.74 Abs and the “HEK-Blue IL-18: Fold over Background” value is 3.2 fold.
Regarding B19, the “HEK-Blue IL-18: Abs 405” value worked out at 0.38 Abs and the “HEK-Blue IL-18: Fold over Background” value is 1.7 fold.
